± gives the half width of the 95% confidence interval.
Tests used:
[1] = folding stability dG unfold from chymotrypsin proteolysis; higher = more stable
Method in brief: (§1)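 K50 was inferred by Bayesian fitting of sequencing counts obtained after protease digestion of designed mini-proteins. Unfolding free energy was derived by comparison with a sequence-predicted unfolded-state K50 and a shared folded-state K50, for each protease or both combined. The mini-proteins were under 80 residues, had no cysteine, were carried in a PA-tagged cDNA display construct, and were kept only if AlphaFold2 dimer inter-PAE exceeded 15.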

[2] = folding stability dG unfold (combined trypsin and chymotrypsin); higher = more stable
Method in brief: as §1

Sequence: SAGMSSTPQKIVRTTGSTPLPDGSAVSTTTTTYSDGSSTVTTAIPGGLETRATVPPDGTVTTTTAPLLGSAG [r5_168_JUSTAS]
- folding stability dG unfold [1]: -0.248 ± 0.23 kcal/mol
- folding stability dG unfold [2]: -0.422 ± 0.26 kcal/mol

Sequence: SAGMVKINVAKLPDGKYVITVVDANDGTPLLELPVDSPEGAEKAAKAIAEELKKKYPDATVEVDYTDFESAG [r5_383_TrMRF]
- folding stability dG unfold [1]: 3.49 ± 0.19 kcal/mol
- folding stability dG unfold [2]: 4.13 ± 0.64 kcal/mol

Sequence: SAGNPSLKLKTETQVEVTEVSESVLPDGGYTLTKSKFTVTTTIYDTTKPKVLSTETTEETETVATPLVSAGG [r19_136_JUSTAS]
- folding stability dG unfold [1]: 0.442 ± 0.11 kcal/mol
- folding stability dG unfold [2]: 0.0701 ± 0.07 kcal/mol

Sequence: SAGPLEELLARAERVEEDPSTGKRLVYTSDPELVRAALAEGAPDYTLTESPDDRRSALINFPPLPPGVLSAG [r14_115_JUSTAS]
- folding stability dG unfold [1]: 0.32 ± 0.14 kcal/mol
- folding stability dG unfold [2]: -0.0125 ± 0.14 kcal/mol

Sequence: SAGRPPEALREEVSEETITIPVPSTDSDEAPALTTKVTKTTTRLPTPVTTTTTTTTYPDGTTTTTTTAASAG [r5_580_JUSTAS]
- folding stability dG unfold [1]: 0.285 ± 0.033 kcal/mol
- folding stability dG unfold [2]: -0.061 ± 0.11 kcal/mol

Sequence: SAGSETVLKTTTEPRTEPDSEVETTTEVYPDGKRITRTTTTYPNPGEGNPATPVTTTTTTVTELPPNELSAG [r5_224_JUSTAS]
- folding stability dG unfold [1]: -0.378 ± 0.12 kcal/mol
- folding stability dG unfold [2]: < -1 kcal/mol

Sequence: SAGSIQVSESALAPGYSLYTITIPYQSIEDAKKLVEEIVSKRFSVPAEIIETKVDPNTGVVTFTVKVPPSAG [r5_810_JUSTAS]
- folding stability dG unfold [1]: 5.31 ± 0.088 kcal/mol
- folding stability dG unfold [2]: 5.32 ± 0.15 kcal/mol

Sequence: SAGSSRIIFYPENNTYLIETPEGSFTLPETVTTTTPAPTGENPDRTVPRPTTTYVATELSLEEAEKLLSSAG [r5_234_JUSTAS]
- folding stability dG unfold [1]: 0.367 ± 0.051 kcal/mol
- folding stability dG unfold [2]: -0.149 ± 0.076 kcal/mol

Sequence: SAGSVTVEVFGPGRLLATYTLDDTTTTVAVPPEPVRVRIRSPGDDAEATADADPATGVVTVTVPADLGLSAG [r5_469_JUSTAS]
- folding stability dG unfold [1]: 0.679 ± 0.05 kcal/mol
- folding stability dG unfold [2]: 0.165 ± 0.064 kcal/mol

Sequence: SAGTITKLKTEYDPKGYRFIELLDPLPNDPSVPAEALAQEIKEKYGAEKAEIKPVPGTGAIRILLIKPESAG [r14_228_JUSTAS]
- folding stability dG unfold [1]: -0.396 ± 0.48 kcal/mol
- folding stability dG unfold [2]: -0.67 ± 0.42 kcal/mol

Sequence: SAGTVFVAHSDDRPPVAAPETGTVTLPAPDGARVTLRRLPDGTAVVTPDGGESRTLGPGARVEVRLLPASAG [r5_869_TrMRF]
- folding stability dG unfold [1]: -0.156 ± 0.37 kcal/mol
- folding stability dG unfold [2]: < -1 kcal/mol

Sequence: SAGVEPTPDGKWRIEINPEEGHIRVRMKNGEPHEIPFPEGSLDDFADEIAEKMGFPPDKPFKIDEIEIWSAG [r5_923_TrROS]
- folding stability dG unfold [1]: -0.0363 ± 0.21 kcal/mol
- folding stability dG unfold [2]: -0.273 ± 0.19 kcal/mol

Sequence: SAGVKIKWEPIDRDPKNGHVYYSITIKVPKDGKPLDEIPIGMYQFDNDDGKWEPMPEEDIKQQAKDLLNSAG [r5_909_TrROS]
- folding stability dG unfold [1]: 0.0649 ± 0.34 kcal/mol
- folding stability dG unfold [2]: -0.415 ± 0.52 kcal/mol

Sequence: SAKVHIPFPPGMPPKQMRNMVKNALREQQNNGKEPDKITIHMPPDQRPIKDWLKEAGLPPDNVKWEPWPSAG [r14_589_TrROS]
- folding stability dG unfold [1]: -0.422 ± 0.55 kcal/mol
- folding stability dG unfold [2]: < -1 kcal/mol

Sequence: SALEPGEWRKVTAEIPLPGGPLKLEIYEWPSNGHYYADIRNPGNGRPVEIPFPFDTPDDAVDEAKDFIRSAG [r14_65_TrROS]
- folding stability dG unfold [1]: 0.101 ± 0.4 kcal/mol
- folding stability dG unfold [2]: -0.625 ± 0.63 kcal/mol

Sequence: SAMIVTEKEDPATNTTLVTTTEIYPDSITVTTTTITKSGEILTESPSTTTIPLGSPLGPENKAKNIALSSAG [r14_930_JUSTAS]
- folding stability dG unfold [1]: -0.184 ± 0.14 kcal/mol
- folding stability dG unfold [2]: < -1 kcal/mol

Sequence: SAMKKLRELLEKEFPDRPIKSVKNLGEKLAPDGTPYYVVELTFPDGSTITVTITSEEKPEILEAIEEEESAG [r14_143_JUSTAS]
- folding stability dG unfold [1]: 3.9 ± 0.22 kcal/mol
- folding stability dG unfold [2]: 4.03 ± 0.27 kcal/mol

Sequence: SAMKTYTFEFTLTVPPDTPLEEVKAKVKEKVKAELKKLGIPLPETAKIEIKKVKEEGNKIYFKVTVTNKSAG [r14_735_JUSTAS]
- folding stability dG unfold [1]: 4.06 ± 0.057 kcal/mol
- folding stability dG unfold [2]: 4.16 ± 0.14 kcal/mol

Sequence: SAMTPDELADELAKKFHQQNQENGYEIPDVDIKYDPEEDRVTVEFEMRNKNTGRPMRPTFQIDDPEDILSAG [r14_409_TrROS]
- folding stability dG unfold [1]: -0.247 ± 0.33 kcal/mol
- folding stability dG unfold [2]: < -1 kcal/mol

Sequence: SAPAVETRSVTTEPVASPTPRVPYTLVVESVTTTAVDAAGTPVATSVSLKEVRYGDGTISRTFSATPTASAG [r14_848_JUSTAS]
- folding stability dG unfold [1]: -0.953 ± 0.29 kcal/mol
- folding stability dG unfold [2]: < -1 kcal/mol

Sequence: SAPEIVVERFEDGSRRLGFTIPGYEVLEEVDVPANETEKTAVFTLPDRVLVFTFREEGIEPRPVPLDELSAG [r14_403_TrMRF]
- folding stability dG unfold [1]: -0.201 ± 0.3 kcal/mol
- folding stability dG unfold [2]: -0.598 ± 0.25 kcal/mol

Sequence: SAPPATLTVDSVEFHPETGTLTIPFSHPAGPTASVLFRNEDGEVLEIPGTVPTATIRAEPNMRLERVFLGSA [r9_113_TrMRF]
- folding stability dG unfold [1]: 0.499 ± 0.1 kcal/mol
- folding stability dG unfold [2]: -0.0386 ± 0.081 kcal/mol

Sequence: SASLTPVGPGPDSVVTADPSTGKLYRLEPADGRLTVTTTTFAPGPAAPAPTTTTLPLSPEEAAALRALLSAG [r14_245_JUSTAS]
- folding stability dG unfold [1]: -0.304 ± 0.26 kcal/mol
- folding stability dG unfold [2]: < -1 kcal/mol

Sequence: SGGMTPEQMIRHVLREARANNPGKKIEISWNSIQKNFPHPMSPEEIKKELKEEDGIKDVTIQPIPPNDPFSA [r9_738_TrROS]
- folding stability dG unfold [1]: -0.315 ± 0.29 kcal/mol
- folding stability dG unfold [2]: < -1 kcal/mol

Sequence: SGMPPVSVSSIEPVSVSPDGTSRTFRAPLTTPSGEPVTYTGPVSEILKRVEEEGWGPTASAPGGLVEVRDSA [r9_1078_JUSTAS]
- folding stability dG unfold [1]: -0.368 ± 0.12 kcal/mol
- folding stability dG unfold [2]: -0.583 ± 0.1 kcal/mol

Sequence: SGMTPVSVSRKFTSTFPNGTPVSDPGGLVVLVPEPPPPPYVHLSPEEVEAARAAAAAAGSPLTEADIRASSA [r9_487_JUSTAS]
- folding stability dG unfold [1]: 0.164 ± 0.21 kcal/mol
- folding stability dG unfold [2]: -0.642 ± 0.42 kcal/mol

Sequence: SGRIKDVIMERDDNGGGNIMIMKLGNGEMEHIPPGEKLEIPLPPDDTLYLMVFDPNDGEPIETEEIKVDDSA [r9_209_TrROS]
- folding stability dG unfold [1]: -0.367 ± 0.35 kcal/mol
- folding stability dG unfold [2]: < -1 kcal/mol

Sequence: SMDVVTEVTVKLPYRDASHHHHLNIKVTRTISSKDPSLSPEALPPEVLAEEAKKEAIEELKKKGIPEEFLSA [r9_516_JUSTAS]
- folding stability dG unfold [1]: -0.346 ± 0.64 kcal/mol
- folding stability dG unfold [2]: < -1 kcal/mol

Sequence: SMEFTIEVYDPVTPKVETFPVKAPKEKVIEKIREFQEKGGKVVLSGLPEEKVKEIVEEAGVDVEIVPVEKSA [r9_1207_TrMRF]
- folding stability dG unfold [1]: 0.54 ± 0.09 kcal/mol
- folding stability dG unfold [2]: 0.283 ± 0.19 kcal/mol

Sequence: SMKTYTFTDPNNGIKYTITIDPNKPLVNVTVTKPGGEPVETQTVSVAPGKINLSLNVDGKPISISISLPESA [r9_385_JUSTAS]
- folding stability dG unfold [1]: 5.29 ± 0.15 kcal/mol
- folding stability dG unfold [2]: 5.37 ± 0.2 kcal/mol

Sequence: SMSIKRARLRPEEIEAEIAALEAQGLRVKREPLEVTPVEVPLKLPDGTPRRVEVVEVVFRLELTPLDQPPSA [r9_991_JUSTAS]
- folding stability dG unfold [1]: -0.433 ± 0.48 kcal/mol
- folding stability dG unfold [2]: < -1 kcal/mol

Sequence: SMTPEVSVITLRPVEVKKVGEVPVVTLEVTEVENAPEELLEKVKAGAKLTIEVPKDEPIEPDEEIEVVLPSA [r9_557_JUSTAS]
- folding stability dG unfold [1]: 0.146 ± 0.1 kcal/mol
- folding stability dG unfold [2]: -0.706 ± 0.27 kcal/mol

Source: the supplement of paper PMC12764529
